Biological target: T1, BSA (bovine serum albumin) (bovine (송아지 혈청 알부민), UniProt P02769 25-607)
T1 construct: Negative control antigen of the phage ELISA; also called 송아지 혈청 알부민
Experiment: phage ELISA, 1% BSA coated, anti-M13 peroxidase, OD 492 nm

T1 sequence (P02769 25-607 limits assumed): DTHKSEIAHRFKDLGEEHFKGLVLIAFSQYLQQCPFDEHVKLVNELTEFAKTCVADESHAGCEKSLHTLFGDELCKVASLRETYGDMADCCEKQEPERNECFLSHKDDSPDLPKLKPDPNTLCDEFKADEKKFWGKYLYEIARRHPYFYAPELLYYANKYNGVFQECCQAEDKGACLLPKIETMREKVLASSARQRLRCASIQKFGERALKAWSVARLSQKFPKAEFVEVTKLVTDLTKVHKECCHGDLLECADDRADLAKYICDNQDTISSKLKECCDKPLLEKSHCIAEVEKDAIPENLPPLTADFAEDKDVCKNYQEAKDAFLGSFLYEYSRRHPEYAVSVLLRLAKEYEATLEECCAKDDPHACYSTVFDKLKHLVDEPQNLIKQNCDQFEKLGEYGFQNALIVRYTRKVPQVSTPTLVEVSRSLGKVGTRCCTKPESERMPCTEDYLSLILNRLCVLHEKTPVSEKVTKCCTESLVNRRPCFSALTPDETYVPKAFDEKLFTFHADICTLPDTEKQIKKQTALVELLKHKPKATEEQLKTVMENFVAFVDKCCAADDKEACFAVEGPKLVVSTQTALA

B1: SC05-179 (scFv)
scFv: EVQLVESGGGLVKPGGSLGLSCAASGFFFSDYSMSWIRQAPGKGLEWLSNISGSGHSTKYAESMRGRITISRDNAKKSLSLQLNSLRAEDTAVYFCVRGGGYRMDVWGQGTTVTVSSGTGGSGGTGSGTGGSTQSALTQPRSVPGSPGQSVTISCTGTSSDVGGYNYVSWYQQHPGKAPKLMIYDVSKRPSGVPDRFSGSKSGNTASLTVSGLQAEDEADYYCSSYAGSNNFVVFGGGTKLTVL
Does B1 bind?
Result: no binding

B2: SC06-043 (scFv)
scFv: EVQLVESGAEVKKPGESLKISCKGSGYSFTSYWIGWVRQMPGKGLEWMGIIYPGDSDTRYSPSFQGQVTISADKSISTAYLQWSSLKASDTAMYYCARRYCSGGTCSDGFDIWGQGTMVTVSSGTGGSGGTGSGTGGSTQSALTQPPSASGSPGQSVTISCTGTSSDVGGYNYVSWYQQHPGKAPKLMIYEVSKRPSGVPDRFSGSKSGNTASLTVSGLQAEDEADYYCSSYAGSNNLVFGGGTKLTVL
Does B2 bind?
Result: no binding

B3: SC06-050 (scFv)
scFv: EVQLVESGPEVKKPGASVKVSCEASGYNLDNYGITWVRQAPGQGLEWLGWISAYNAKTEYGQRLQGRVTMTTDTATSTAYLELRSLRSDDTAVYYCARVLGYRGGWYDEGDAFDVWGQGTMVTVSSGTGGSGGTGSGTGGSTDIQLTQSPSFLSASVGDRVTITCRASQGIRSHLAWYQQKAGKAPKLLIYAASTLQSGVPSRFSGSGSGTEFTLTISSLQPDDFAAYYCQQLNTYPITFGQGTRLEIK
notes: also called SC05-050
Does B3 bind?
Result: no binding

B4: SC05-187 (scFv)
scFv: EVQLVQSGAEVKKPGESLKISCKGSGYSFTKYWIGWVRQMPGKGLEWMGIIYPGDSDTRYSPSFQGQVTISADKSISTAYLQWSSLKASDTAMYYCARGSGIATGNSFDSWGQGTLVTVSSGTGGSGGTGSGTGGSTQTVVTQEPSLTVSPGGTVTLTCASSTGAVTSGYYPNWFQQKPGQAPRALIYSTSKKHSWTPARFSGSLLGGRAALTLSGAQPEDEADYYCLLSYGGARVFGGGTKLTVL
Does B4 bind?
Result: no binding

B5: SC06-016 (scFv)
scFv: QVQLVQSGPEVKKPGASVTVSCKASGYSFSSYGISWVRQAPGQGLEWMGRIIPVGGNTLYSQMFQGRVTMTSDTSTSTVYLELSSLRSEDTAVYFCARDGGRWQFDYWGQGTLVTVSSGTGGSGGTGSGTGGSTDIQLTQSPSSVSASVGDRVTITCRASQGISNWLAWYQQKPGKAPELLIYAASSLQSGVPPRFSGSASGTDFTLTISSLQPEDFATYYCQQSKNFPYTFGQGTKVEIK
Does B5 bind?
Result: no binding

B6: SC06-429 (scFv)
scFv: QVQLVQSGAEVKNPGESLKISCKGSGYTFTSYWIGWVRQMPGKGLEWMGSIYPGDSDTRYSPSFQGQVTISVDKSISTAYLQWSSLKASDTAMYYCARQYRAGSTTRFDPWGQGTLVTVSSGTGGSGGTGSGTGGSTDVVMTQSPLSLPVTPGEPASISCRSSQSLRHRNGNNYLDWYLQKPGQSPQLLIYLGSNRASGVPDRFSGSGSGTDFTLKISRVEAEDVGIYYCMQALQTPLTFGGGTKVEIK
Does B6 bind?
Result: no binding

B7: SC06-049 (scFv)
scFv: QVQLVQSGAEVKKPGESLKISCKGSGYSFTSYWIGWVRQMPGKGLEWMGIIYPGDSDTRYSPSFQGQVTISADKSIGTAYLQWSSLKASDTAMYYCARLFRVRGGHFDSWGQGTLVTVSSGTGGSGGTGSGTGGSTQSALTQPASVSGSPGQSITISCTGTNSDVGGYNYVSWYQQHPGKAPKLLIYDVTNRPSGVSNRFSASKSGNTASLTISGLQAEDEADYYCSSFTSSSTRVFGGGTKLTVL
Does B7 bind?
Result: no binding

B8: SC06-432 (scFv)
scFv: QLQLQESGPGLVKPSQTLSLTCTVSGGSISSGGYYWSWIRQHPGKGLEWIGYIYYSGSTYYNPSLKSRVTISVDTSKNQFSLKLSSVTAADTAVYYCARERILDRMNDYWGQGTLVTVSSGTGGSGGTGSGTGGSTQSVVTQPPSVSGAPGQRVTISCTGSSSNIGAGYDVHWYQQLPGTAPKLLIYGNSNRPSGVPDRFSGSKSGTSASLAITGLQAEDEADYYCQSSDSSLNILFGGGTKLTVL
Does B8 bind?
Result: no binding

Source: patent KR20140095558A (dated 2014)
